# Reference: US8673848 (Novartis, dated 2014)
# Bridges are numbered along the chain shown (N, C = ends). [ ]: non-standard residue; d: D form. pGlu = O=C1CC[C@@H](C(=O)O)N1; Nle = CCCC[C@H](N)C(=O)O; Aib = CC(C)(N)C(=O)O
# T1: human APJ receptor (hAPJ) (human, UniProt P35414 1-380)
# T1 sequence (looked up): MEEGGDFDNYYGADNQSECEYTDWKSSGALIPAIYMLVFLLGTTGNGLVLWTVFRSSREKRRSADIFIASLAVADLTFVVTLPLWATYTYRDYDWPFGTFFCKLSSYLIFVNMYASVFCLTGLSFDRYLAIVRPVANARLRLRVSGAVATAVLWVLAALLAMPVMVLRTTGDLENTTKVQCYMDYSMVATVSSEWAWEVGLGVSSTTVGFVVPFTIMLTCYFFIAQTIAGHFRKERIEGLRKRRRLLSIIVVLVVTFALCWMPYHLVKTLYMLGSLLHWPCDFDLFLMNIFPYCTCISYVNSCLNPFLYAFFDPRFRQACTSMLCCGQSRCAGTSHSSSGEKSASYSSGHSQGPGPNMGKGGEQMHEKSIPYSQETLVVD
# B1: Example 9: pE-R-P-R-L-C-Aib-K-G-P-Nle-C-F-OH (peptide)
# peptide: [pGlu]RPRLC[Aib]KGP[Nle]CF-OH
# modifications: disulfide 6-12
# SMILES: CCCC[C@@H]1NC(=O)[C@@H]2CCCN2C(=O)CNC(=O)[C@H](CCCCN)NC(=O)C(C)(C)NC(=O)[C@@H](NC(=O)[C@H](CC(C)C)NC(=O)[C@H](CCCNC(=N)N)NC(=O)[C@@H]2CCCN2C(=O)[C@H](CCCNC(=N)N)NC(=O)[C@@H]2CCC(=O)N2)CSSC[C@@H](C(=O)N[C@@H](Cc2ccccc2)C(=O)O)NC1=O
# Biological target: T1, human APJ receptor (hAPJ)
# Assay: cell-based or functional assay
binder,measurement,value
B1,hAPJ Ca2+ Flux EC50,2.16 nM
